Measurements as given in article PMC3018327 (Nature immunology, 2010).

Target: soluble HLA-DM, wild type (DM WT) (human) (UniProt P28067)
Assay: SPR

DR1 (DRα V65C) with disulfide-linked HA6 P2-P11 peptide (from UniProt P01903) (peptide-MHC)
Kd: 1000 nM | percent of maximal DM binding at pH 7.0: 40%
